Source: doi:10.1101/671792

Target: polymerization-deficient p62 PB1 domain D69A/D73A (human) (UniProt Q13501)
Assay: ITC

A Kd of 12.6 nM was found for “human NBR1 PB1 domain, residues 1-85 (ITC) (from UniProt Q14596 1-85) (domain or fragment)” in this work.
